From patent publication US20250382373A1, “ANTI-EGFR/MET ANTIBODIES AND USES THEREOF” (Biocytogen Pharmaceuticals (Beijing) Co., Ltd., priority 2022, published 2025)

Experiments:
NUGC-4 cells = experiment: NUGC-4 xenograft model (gastric cancer); assay type: in vivo, B-NDG mice; conditions: 3 mg/kg i.v. QW x2
[1] = test system: patient-derived gastric tumor fragments; experiment: Human gastric cancer PDX model; assay type: in vivo, B-NDG mice; conditions: 10 mg/kg i.v. BIW x6
Description: The mice were then injected with PBS, ADCs or Amivantamab (Janssen, Reference No.: LFS01L03) by intravenous (i.v.) administration.

[2] = test system: patient-derived ampullary tumor fragments; experiment: Human ampullary carcinoma PDX model; assay type: in vivo, B-NDG mice; conditions: 10 mg/kg i.v. BIW x4
Description: The ADCs were tested for their effect in human ampullary carcinoma PDX model.
The mice were then injected with PBS, ADCs or Amivantamab (Janssen, Cat #: LFS0L03) by intravenous (i.v.) administration.

NCI-H1975 cells = experiment: NCI-H1975 xenograft in Balb/c nude mice; assay type: in vivo; conditions: 10 mg/kg, BIW, 4 administrations, i.v.
Description: The mice were then injected with PBS, E-6C4-M-2F II-ADC (1.5 mg/kg, 3 mg/kg or 6 mg/kg, QW, 2 administrations in total) or Amivantamab (Janssen, Reference No.: LFS0L03) (10 mg/kg, BIW, 4 administrations in total) by intravenous (i.v.) administration.

| Molecule | Tumor volume Day 14 (NUGC-4 cells) [mm^3] | TGI (%) (NUGC-4 cells; Day 28) | Tumor volume Day 0 (NUGC-4 cells; day of grouping) [mm^3] | Tumor volume Day 28 (NUGC-4 cells; end of experiment) [mm^3] | Tumor-free (Day 28) (NUGC-4 cells; number of tumor-free mice/total) | Tumor volume Day 28 [1] [mm^3] | Tumor volume Day 56 [1] [mm^3] | TGI (%) ([1]; Day 56) | Tumor volume Day 0 ([1]; day of grouping) [mm^3] | Survival ([1]; surviving/total mice) | Tumor volume Day 14 [2] [mm^3] | Tumor volume Day 21 [2] [mm^3] | TGI (%) ([2]; Day 21) | Tumor volume Day 0 ([2]; day of grouping) [mm^3] | TGI (NCI-H1975 cells) [%] |
| --- | --- | --- | --- | --- | --- | --- | --- | --- | --- | --- | --- | --- | --- | --- | --- |
| Telisotuzumab analog-ADC (conjugate, chains of the INN, looked up, antibody-drug conjugate payload) VH: QVQLVQSGAEVKKPGASVKVSCKASGYIFTAYTMHWVRQAPGQGLEWMGWIKPNNGLANYAQKFQGRVTMTRDTSISTAYMELSRLRSDDTAVYYCARSEITTEFDYWGQGTLVTVSS VL: DIVMTQSPDSLAVSLGERATINCKSSESVDSYANSFLHWYQQKPGQPPKLLIYRASTRESGVPDRFSGSGSGTDFTLTISSLQAEDVAVYYCQQSKEDPLTFGGGTKVEIK | 60 ± 10 | 108.1 | 198 ± 14 | 88 ± 67 | 0/5 |  |  |  |  |  |  |  |  |  |  |
| Amivantamab: Amivantamab (Janssen, Reference No.: LFS0L03), bispecific antibody targeting EGFR and MET (antibody, chains of the INN, looked up, V domains shown) VH: QVQLVESGGGVVQPGRSLRLSCAASGFTFSTYGMHWVRQAPGKGLEWVAVIWDDGSYKYYGDSVKGRFTISRDNSKNTLYLQMNSLRAEDTAVYYCARDGITMVRGVMKDYFDYWGQGTLVTVSS VL: AIQLTQSPSSLSASVGDRVTITCRASQDISSALVWYQQKPGKAPKLLIYDASSLESGVPSRFSGSESGTDFTLTISSLQPEDFATYYCQQFNSYPLTFGGGTKVEIK VH2: QVQLVQSGAEVKKPGASVKVSCETSGYTFTSYGISWVRQAPGHGLEWMGWISAYNGYTNYAQKLQGRVTMTTDTSTSTAYMELRSLRSDDTAVYYCARDLRGTNYFDYWGQGTLVTVSS VL2: DIQMTQSPSSVSASVGDRVTITCRASQGISNWLAWFQHKPGKAPKLLIYAASSLLSGVPSRFSGSGSGTDFTLTISSLQPEDFATYYCQQANSFPITFGQGTRLEIK |  |  |  |  |  | 40 ± 6 | 643 ± 391 | 86.3 | 262 ± 24 | 5/5 | 756 ± 78 | 1047 ± 104 | 8 | 273 ± 13 | 12.9 |
